Test results from patent US7078038.

Key:
[1] = target: CD4 receptor on the cell surface (UniProt P01730); experiment: cell-based or functional assay
[2] = target: W338S gp120 fixed to CEM cells CD4+/CXCR4+ (HIV-1 (HXB2 clone of HIV-IIIB)) (UniProt P04578); experiment: flow cytometry, antibody at 10 µg/ml on gp120 fixed to CEM cells CD4+/CXCR4+
[3] = target: wild gp120 fixed to CEM cells CD4+/CXCR4+ (HIV-1 (HXB2 clone of HIV-IIIB)) (UniProt P04578); experiment: as above
[4] = target: CXCR4 receptor on the cell surface (UniProt P61073); experiment: cell-based or functional assay

| Substance | Percentage of fusion foci [1] [%] | average fluorescence intensity [2] | average fluorescence intensity [3] | Percentage of fusion foci [4] [%] |
| --- | --- | --- | --- | --- |
| 112W/S gp120 expressed on the surface of transfected HeLa-Tat cells (gp160 envelope with 112 W/S) (from UniProt P04578 33-856) | 0 |  |  |  |
| AcM 4.8d (antibody) |  | 209 | 76.8 |  |
| AcM 17b (antibody) |  | 176 | 70.5 |  |
| gp160 envelope with 112 W/F in gp120, expressed on transfected HeLa-Tat cells (from UniProt P04578 33-856) | 60 |  |  |  |
| gp160 envelope with 338 W/S in gp120, expressed on transfected HeLa-Tat cells (from UniProt P04578 33-856) |  |  |  | 0 |
